From article PMC4626678 (2015)
Where a chain is given by its changes, count along the chain named.

T1: trypsin (Bos taurus, UniProt P00760)
T1 chain: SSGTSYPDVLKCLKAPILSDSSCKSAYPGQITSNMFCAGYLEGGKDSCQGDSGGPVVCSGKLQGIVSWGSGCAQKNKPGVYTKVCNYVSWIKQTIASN

B1: HCRG2 (protein)
chain: RGICLEPKVVGPCKARIRRFYYDSETGKCTPFIYGGCGGNGNNFETLHACRGICRA
B2: HCRG1 (protein)
chain: B1 chain with L5S, R16G, I17L, K28E, T30K, G38K, G41K

Key:
[1] = molecular target: alpha-chymotrypsin (Bos taurus, UniProt P00766); test: SPR
[2] = molecular target: T1, trypsin; test: SPR
[3] = molecular target: T1, trypsin; test: enzyme inhibition (Dixon, BAPNA)

| Binder | Kd [1] [nM] | Kd [2] [nM] | Ki [3] [nM] |
| --- | --- | --- | --- |
| B1 | 1.6 | 0.68 | 50 |
| B2 | 1.8 | 0.22 | 28 |
